Key:
[1] = target: SUMO1 conjugated to agarose beads (UniProt P63165); test: pull-down; SUMO1 beads, binding of KmUTAG over time (min); percent of total protein bound
[2] = target: SUMO1 conjugated to agarose beads (UniProt P63165); test: pull-down; SUMO1 beads with 2.0 M urea, 5 mM TCEP; quantitated against the reaction without urea
[3] = target: SUMO1 conjugated to agarose beads (UniProt P63165); test: pull-down; SUMO1 beads, with TCEP, at 42°C; bound UTAG quantitated from the stained gel against room temperature
[4] = target: SUMO1 conjugated to agarose beads (UniProt P63165); test: pull-down; SUMO1 beads, 45 min in the presence of hydrogen peroxide (concentration not told); percent of total protein bound
biotinylated SUMO1 = biotinylated SUMO1 (UniProt P63165); test: BLI; biotinylated SUMO1 on streptavidin sensors (Octet QK); UTAG as analyte 4-250 nM; 25°C; HBS-T (10 mM HEPES pH 7.4, 150 mM NaCl, 0.05% Tween 20); association 300 s, dissociation 300 s; global single-state fit
SUMO1 (Homo sapiens) = SUMO1 (Homo sapiens) (UniProt P63165); settings: cited from earlier work
[5] = target: SUMO1 conjugated to agarose beads (UniProt P63165); test: pull-down; SUMO1 beads with various concentrations of hydrogen peroxide (0.006% named in the text); quantitated from the stained gel
[6] = target: SUMO1 conjugated to agarose beads (UniProt P63165); test: pull-down; SUMO1-conjugated agarose beads in buffer with hydrogen peroxide (0.6% in the text, 1% in the legend) instead of TCEP; quantitated from the stained gel

percent of the protein bound after 45 minutes [1] [%]	percent of the protein bound within 15 minutes [1] [%]	percent reduction of binding in 2M urea [2] [%]	percent reduction of binding at 42°C against room temperature [3] [%]	percent of the protein bound after 45 minutes in the presence of peroxide [4] [%]	KD after elimination of the top two analyte traces (biotinylated SUMO1) [nM]	Kd (biotinylated SUMO1) [nM]	koff (biotinylated SUMO1) [s⁻¹]	kon (biotinylated SUMO1) [M⁻¹ s⁻¹]	percent reduction of binding with 0.006% peroxide [5] [%]	percent of binding left in the presence of 0.6% H2O2 [6] [%]	Substance	Kd (SUMO1 (Homo sapiens)) [nM]
70	50	23	25	60	8.7	8.7	0.00084	96000	–	–	KmUTAG, catalytically inactive (C517S) UD domain of Kluyveromyces marxianus Ulp1, MBP/His6 fusion (from UniProt A0ABX6EQA7 1-555) (domain or fragment)	–
–	–	–	–	–	–	–	–	–	–	–	ScUTAG (from UniProt Q02724)	12.8
–	–	82	87	–	–	2	4.2e-05	21000	50	17	ScUTAG, catalytically inactive (C580S) UD domain of Saccharomyces cerevisiae Ulp1, MBP/His6 fusion (from UniProt Q02724 1-621) (domain or fragment)	–
